In PMC8073719, “Biochemical and Biophysical Characterization of Recombinant Human 3-Phosphoglycerate Dehydrogenase” (International Journal of Molecular Sciences, 2021):
Several values for one entry are separate records, joined by “and”; a condition that tells them apart may be missing. Equal values may be shown once.

Legend:
hPHGDH [1] = biological target: T1, hPHGDH (Homo sapiens, UniProt O43175); assay: hPHGDH reverse reaction kinetics (decrease in NADH fluorescence at 450 nm); conditions: for kcat: per monomer
T1 sequence (O43175 1-533): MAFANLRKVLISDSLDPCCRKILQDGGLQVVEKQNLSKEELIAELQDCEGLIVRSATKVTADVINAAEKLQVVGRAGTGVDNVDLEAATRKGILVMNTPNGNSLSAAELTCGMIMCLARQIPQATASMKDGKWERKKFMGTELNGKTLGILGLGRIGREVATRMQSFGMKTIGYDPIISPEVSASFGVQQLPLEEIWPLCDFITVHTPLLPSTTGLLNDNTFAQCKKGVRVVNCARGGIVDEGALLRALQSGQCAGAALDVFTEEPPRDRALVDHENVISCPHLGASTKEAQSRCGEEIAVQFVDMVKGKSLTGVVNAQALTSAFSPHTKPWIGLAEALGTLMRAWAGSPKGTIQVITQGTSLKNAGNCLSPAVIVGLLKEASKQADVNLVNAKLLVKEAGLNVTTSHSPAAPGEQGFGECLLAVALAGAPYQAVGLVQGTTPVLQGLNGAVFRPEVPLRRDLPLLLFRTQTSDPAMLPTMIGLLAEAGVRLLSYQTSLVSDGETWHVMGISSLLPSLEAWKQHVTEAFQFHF
From the text: The latter assay was used to determine the apparent kinetic parameters on alternative substrates.

hPHGDH [2] = biological target: T1, hPHGDH; assay: Ligand binding by quenching of protein fluorescence at 330 nm
Method: Protein fluorescence spectra were measured at 0.06–0.1 mg/mL protein concentration in 10 mM potassium phosphate, pH 7.0, 15 °C; spectra were recorded using a Jasco FP-750 instrument and were corrected for the buffer contribution. Protein fluorescence spectra were recorded between 300 and 450 nm, with excitation at 280 and 298 nm.
All recorded spectra were subtracted for the contribution of the ligand (added to the buffer only) and were corrected for dilution at every addition. […] In all cases, Kd values were determined by fitting the data to a hyperbolic function.

hPHGDH [3] = biological target: T1, hPHGDH; assay: Temperature-ramp unfolding (melting temperature) with cofactors; format: binding; set-up: His-tagged full-length hPHGDH was expressed in BL21(DE3) E. coli cells; made in house; host or cells: E. coli BL21(DE3)
Method: Temperature-ramp experiments were performed in 10 mM potassium phosphate, pH 7.0. For this, a software-driven, Peltier-equipped fluorimeter was used to measure the protein fluorescence change at 330 nm or a CD spectropolarimeter to follow the CD signal at 280 nm in order to reproduce a temperature gradient (0.5 °C/min) [31].

truncated hPHGDH form = biological target: truncated hPHGDH form; set-up: method as in PMID 29262655; conditions: isothermal calorimetry; cited from earlier work
M. tuberculosis PHGDH = conditions: reverse reaction; cited from earlier work
E. coli PHGDH = conditions: reverse reaction; cited from earlier work
hPHGDH [4] = biological target: T1, hPHGDH; assay: Effect of salts, phosphate and serine synthesis metabolites on hPHGDH activity (hydrazine assay); format: biochemical; set-up: His-tagged full-length hPHGDH was expressed in BL21(DE3) E. coli cells; made in house; host or cells: E. coli BL21(DE3); conditions: up to 50 mM final concentration
From the text: The effects of KCl, NaCl, MgCl2 and CaCl2 and of pH and temperature on enzyme activity and stability were investigated using the hydrazine assay. […] The dependence of activity on pH was fitted using an equation for three pKa values, according to [44], providing apparent values unrelated to microscopic ones.

[5] = Maximal solubility of inhibitor stock; format: physicochemical; conditions: dissolved in DMSO
hPHGDH [6] = biological target: T1, hPHGDH; assay: Inhibition of hPHGDH activity by inhibitors (hydrazine assay); format: biochemical; set-up: His-tagged full-length hPHGDH was expressed in BL21(DE3) E. coli cells; made in house; host or cells: E. coli BL21(DE3); conditions: kinetics on 3PG at increasing inhibitor concentration
[7] = substrate: O=C(O)CC(O)C(=O)O; assay: purified protein, by the assay type; format: biochemical, human; conditions: hydrazine assay, pH 7.0
Method: (§1) PSAT was added to drive the reaction and to avoid product inhibition of hPHGDH.

[8] = substrate: NC(=O)c1ccc[n+]([C@@H]2O[C@H](COP(=O)(O)OP(=O)(O)OC[C@H]3O[C@@H](n4cnc5c(N)ncnc54)[C@H](O)[C@@H]3O)[C@@H](O)[C@H]2O)c1; assay: purified protein, by the assay type; format: biochemical, human; conditions: 2.5 mM 3PG, pH 7.0; for Km: other: NAD+ varied, Figure S3C
Method: as §1

[9] = biological target: the molecule itself; assay: SEC; Superdex 200 Increase column, increasing potassium phosphate pH 7.0 (100, 250, 500 mM; 0.15 M NaCl added at 100 mM); minor peak ~480 kDa confirmed by anti-His Western blot; tetramers to octamer
[10] = biological target: the molecule itself; assay: SEC; Superdex 200 Increase column, potassium phosphate pH 7.0 (20 mM with 0.15 M NaCl); major peak approx. 240 kDa; monomers to tetramer
[11] = substrate: CC(O)CC(=O)O; assay: purified protein, by the assay type; conditions: hydrazine assay, pH 7.0
[12] = substrate: C[C@@H](O)C(=O)O; assay: purified protein, by the assay type; conditions: other: forward reaction, substrate varied, 1.5 mM NAD^+, hydrazine assay, 37 °C, pH 7.0, per monomer
[13] = substrate: O=C(O)C(=O)COP(=O)(O)O; assay: purified protein, by the assay type; conditions: pH 7.0
[14] = substrate: O=C(O)C(O)COP(=O)(O)O; assay: purified protein, by the assay type; conditions: pH 7.0
[15] = substrate: NC(=O)C1=CN([C@@H]2O[C@H](COP(=O)(O)OP(=O)(O)OC[C@H]3O[C@@H](n4cnc5c(N)ncnc54)[C@H](O)[C@@H]3O)[C@@H](O)[C@H]2O)C=CC1; assay: purified protein, by the assay type; conditions: other: reverse reaction, NADH varied, 0.5 mM PHP, 37 °C, pH 7.0
[16] = substrate: O=C(O)C(O)C(O)C(=O)O; assay: purified protein, by the assay type; conditions: other: forward reaction, substrate varied, 1.5 mM NAD^+, hydrazine assay, 37 °C, pH 7.0
[17] = substrate: O=C(O)CC(=O)C(=O)O; assay: purified protein, by the assay type; conditions: other: reverse reaction, substrate varied, 5 mM NADH, 37 °C, pH 7.0
[18] = reverse reaction, NADH varied, 0.5 mM PHP, 37 °C, pH 7.0
[19] = other: forward reaction, substrate varied, […] NAD^+, 37 °C
[20] = other: forward reaction, substrate varied, 1.5 mM NAD^+, 37 °C
[21] = other: reverse reaction (discussion value)
[22] = other: reverse reaction, substrate varied, 150 µM NADH, 37 °C
[23] = other: reverse reaction, substrate varied, 5 mM NADH, 37 °C
[24] = other: forward reaction, substrate varied, 120 µM NAD^+, PSAT-coupled (1) and hydrazine (2) assays, 37 °C
[25] = other: forward reaction, substrate varied, 1.5 mM NAD^+, hydrazine assay, 37 °C

NC(=O)C1=CN([C@@H]2O[C@H](COP(=O)(O)OP(=O)(O)OC[C@H]3O[C@@H](n4cnc5c(N)ncnc54)[C@H](O)[C@@H]3O)[C@@H](O)[C@H]2O)C=CC1 [NADH]
Km (hPHGDH [1]; [18]): 560 µM
kcat (hPHGDH [1]; [18]): 3.4 s⁻¹
maximal rate of Michaelis–Menten fit (hPHGDH [1]; reverse reaction, NADH varied, 0.5 mM PHP, Figure S4B): 3.3684
Kd (hPHGDH [2]; Kd (NAD^+; main phase of NADH binding), discussion value): ~130 µM
Kd (hPHGDH [2]; Kd, first phase, free enzyme, 15 °C): 0.49 ± 0.03 µM
Kd (hPHGDH [2]; Kd, second phase, free enzyme, 15 °C): 168 µM and 169 µM
amplitude of protein fluorescence quenching, first phase (hPHGDH [2]; free enzyme): ~35%
amplitude of protein fluorescence quenching, second phase (hPHGDH [2]; free enzyme): 65%
Tm, circular dichroism signal at 280 nm (hPHGDH [3]; 120 µM NAD^+ or 100 µM NADH, protein alone 47.5): 51.0 °C
Tm, CD (220 nm) (hPHGDH [3]; +120 μM NAD^+ or +100 μM NADH, hPHGDH alone 47.2 ± 0.5): 51.0 ± 0.3 °C
Tm, Fluorescence (330 nm) (hPHGDH [3]; +120 μM NAD^+ or +100 μM NADH, hPHGDH alone 48.4 ± 2.1): 55.7 °C and 55.7 ± 0.1 °C
Kd (truncated hPHGDH form): 0.2 µM

O=C(O)C(=O)COP(=O)(O)O [PHP, 3-phosphohydroxypyruvate]
Km (M. tuberculosis PHGDH): 85 µM
Ki (hPHGDH [1]; Ki (substrate inhibition), reverse reaction, 150 µM NADH, 37 °C, pH 7.0): 2230 µM
Ki (hPHGDH [1]; Ki (substrate inhibition), reverse reaction, 5 mM NADH, 37 °C, pH 7.0): 1260 µM
Ki (hPHGDH [1]; Ki of fit with substrate inhibition, reverse reaction, 150 µM NADH, Figure S4A): 2230 µM
Ki (hPHGDH [1]; Ki of fit with substrate inhibition, reverse reaction, 5 mM NADH, Figure S4A,C,D): 1260 µM
kinetic efficiency kcat/Km ratio, reverse reaction vs forward reaction on 3PG (hPHGDH [1]; higher than for the forward reaction on 3PG): 20 fold
maximal rate of fit with substrate inhibition (hPHGDH [1]; reverse reaction, 150 µM NADH, Figure S4A): 1.2871
maximal rate of fit with substrate inhibition (hPHGDH [1]; reverse reaction, 5 mM NADH, Figure S4A,C,D): 2.282
kcat (hPHGDH [1]; reverse reaction, substrate varied, 150 µM NADH, 37 °C, pH 7.0): 1.3 s⁻¹
Km (E. coli PHGDH): 40 µM
effect on hPHGDH activity on […] 3PG (hPHGDH [4]): not affected

CBR-5884
maximal solubility [5]: ≤ 1000 µM
mechanism of inhibition (hPHGDH [6]): noncompetitive inhibition mechanism

B1: recombinant human D-3-phosphoglycerate dehydrogenase, His-tagged, full length (enzyme, UniProt O43175 1-533, looked up)
chain: MAFANLRKVLISDSLDPCCRKILQDGGLQVVEKQNLSKEELIAELQDCEGLIVRSATKVTADVINAAEKLQVVGRAGTGVDNVDLEAATRKGILVMNTPNGNSLSAAELTCGMIMCLARQIPQATASMKDGKWERKKFMGTELNGKTLGILGLGRIGREVATRMQSFGMKTIGYDPIISPEVSASFGVQQLPLEEIWPLCDFITVHTPLLPSTTGLLNDNTFAQCKKGVRVVNCARGGIVDEGALLRALQSGQCAGAALDVFTEEPPRDRALVDHENVISCPHLGASTKEAQSRCGEEIAVQFVDMVKGKSLTGVVNAQALTSAFSPHTKPWIGLAEALGTLMRAWAGSPKGTIQVITQGTSLKNAGNCLSPAVIVGLLKEASKQADVNLVNAKLLVKEAGLNVTTSHSPAAPGEQGFGECLLAVALAGAPYQAVGLVQGTTPVLQGLNGAVFRPEVPLRRDLPLLLFRTQTSDPAMLPTMIGLLAEAGVRLLSYQTSLVSDGETWHVMGISSLLPSLEAWKQHVTEAFQFHF
notes: D-3-phosphoglycerate dehydrogenase, human, 533 amino acids; synthetic gene back-translated from GenBank CAG33076.1, codon-optimised for E. coli, cloned in pETM11 (NcoI/XhoI); The N-terminal 6xHis tag of pETM11 can be cut by TEV protease, but no cleavage is reported; the tagged monomer has a theoretical mass of 59.776 kDa and was detected with an anti-His antibody in the SEC peaks; Tetramer in …
Km [7, 19]: 4480 ± 870 µM
kcat [7, 19]: 0.44 ± 0.01 s⁻¹
kcat/Km [7, 19]: 98 M⁻¹ s⁻¹
Km ([7]; other: substrate varied, […] NAD+, Figure S3B,D-F): 4480 µM
Km ([8]; PSAT-coupled assay): 133 µM
Km ([8]; hydrazine assay): 162 µM
kcat/Km ([8]; other: forward reaction, NAD^+ varied, assays 1,2, 37 °C): 15100 M⁻¹ s⁻¹
stoichiometry N [9]: 8
stoichiometry N [10]: 4
Km [11, 20]: 41000 ± 19000 µM
kcat [11, 20]: 2.53 s⁻¹
kcat/Km [11, 20]: 61 M⁻¹ s⁻¹
Km ([11]; other: substrate varied, 1.5 mM NAD+, Figure S3B,D-F, 37.0 °C): 41800 µM
kcat [12]: 5.41 s⁻¹
kcat/Km [12]: 36 M⁻¹ s⁻¹
Km [13, 21]: 10 µM
kcat [13, 21]: 2.28 ± 0.14 s⁻¹
kcat/Km [13, 21]: 228000 M⁻¹ s⁻¹
Km ([13]; other: reverse reaction, 150 µM NADH, Figure S4A): 14.1 µM
Km ([13]; other: reverse reaction, 5 mM NADH, Figure S4A,C,D): 10.2 µM
Km [13, 22]: 0.014 ± 0.003 [Ki = 2.23 ± 0.37] mM
kcat [13, 22]: 1.29 ± 0.09 s⁻¹
kcat/Km [13, 22]: 91100 M⁻¹ s⁻¹
Km [13, 23]: 0.010 ± 0.003 [Ki = 1.26 ± 0.25] mM
kcat [13, 23]: 2.28 ± 0.14 s⁻¹
kcat/Km [13, 23]: 228000 M⁻¹ s⁻¹
Km ([14]; other: 3PG varied, 120 µM NAD+, PSAT-coupled assay, Figure S3A, 37.0 °C): 252 µM
Km ([14]; other: 3PG varied, 120 µM NAD+, hydrazine assay, Figure S3A, 37.0 °C): 317 µM
Km [14, 24]: 255 ± 59 µM
kcat [14, 24]: 1.48 s⁻¹
kcat/Km [14, 24]: 5800 M⁻¹ s⁻¹
Km [14, 25]: 360 ± 61 µM
kcat [14, 25]: 2.97 s⁻¹
kcat/Km [14, 25]: 8250 M⁻¹ s⁻¹
Km ([14]; other: substrate varied, 1.5 mM NAD+, hydrazine assay, Figure S3B,D-F, 37.0 °C): 359 µM
Km [15]: 559 ± 75 µM
kcat [15]: 3.37 s⁻¹
kcat/Km [15]: 6000 M⁻¹ s⁻¹
Km [16]: 5550 ± 2730 µM
kcat [16]: 0.41 s⁻¹
kcat/Km [16]: 74 M⁻¹ s⁻¹
Km [17]: 0.90 ± 0.42 [Ki = 152 ± 56] mM
kcat [17]: 1.76 ± 0.20 s⁻¹
kcat/Km [17]: 1960 M⁻¹ s⁻¹
